From the DeepSol protein solubility set

Test: soluble on expression in E. coli; label from the status in PepcDB or PDB records

Sequence	soluble on expression in E. coli
APPKAVLKLEPPWINVLQEDSVTLTCQGARSPESDSIQWFHNGNLIPTHTQPSYRFKANNNDSGEYTCQTGQTSLSDPVHLTVLSEWLVLQTPHLEFQEGETIMLRCHSWKDKPLVKVTFFQNGKSQKFSRLDPTFSIPQANHSHSGDYHCTGNIGYTLFSSKPVTITVQVHHHHHH	soluble
MPVKVLNFPSVVLQHFLVGLTSTELFELTQCSLKSKDRVRPYEKSNKTFRMAVDFQRNWVDIRGVYRFYVKELVDGKLPKTYGKMGVREFGDKKVQVELDENEKTINIFWPTTEKEDRTFAVMKVAEHFIYTLGLGEFESVTLGQENHAGRIIDWANEKNLNIANFTIGNVDKEHDDVDKVAEKLYSASFFKKVSANFKCLINPTEAFKPNEFLPGIPKNTNMIFFHGAHWMTIDTLKDFTACSVILYDCKFTNKDINEFIKLWKNKEFERIFYISINVPQGSGFKLTEVIAGLDGFGEIENDATTMKREDGKEIEVSVLDEKKQIRIVVD	not soluble
MGSDKIHHHHHHMADQKETIKPFKKIAIFDIFSGENSEIICSDKSKIAAQVNKWVNRAISNGADSCYVRLYEANKENIDTIIENLSYKILQIILPFSLNYKSSLVSAFHFREKDQIKMPEAKSNNVLFGKSCHSLKSIEEAEYEGLDYVFFSPIFATPTHPEAKGIGLDMLTQACKSTQMKVFALGGINENNYQKCLDAGASGIAAISMFKK	not soluble
AVSGLYSSSDDVIELTPSNFNREVIQSDGLWLVEFYAPWCGHCQRLTPEWKKAATALKDVVKVGAVNADKHQSLGGQYGVQGFPTIKIFGANKNKPEDYQGGRTGEAIVDAALSALR	soluble
MVSEAEFMAALAKFAETSATASAAADRVIAVANVDASRIADEFNALLGWAMKIATLLLEEISKNPSLKAEMAESHQMLFGNLGTIVPALLKFGPYINQILGNFGLSLGKLFGIVLAF	not soluble
MGSDKIHHHHHHMQDLNDIALFAAVVKHNGFSAAARDLNVPKSKLSKHVARLEEQLGVRLLERSTRKLRMTEVGRIFYEHAQGLLDGVAAAEAEIAAVRAEPTGVVRLACPIGFTPMLADILPAFHRRYPGVRLLITASNRRIDLIEERIDVALRARDQLDTDSQLIVRKFGEVRQRLAASPTLLARLGEITTDNLSQMPTLSMNEQHPNDVWRLVHATGGAIEIAHRPVVGCSDFLILERAAIEGMGIALLPDHICERAFRTGALVPVLPEWTSGNVMVHLVFPSRHGLLPATRALIDFLAENLIKALERCREVDPRPAASFEI	not soluble
METYDVLVIGGGPGGSTAARYAAKYGLRTLMIEKRPEIGSPVRCGEGLSKGILNEADIKPDKSFIANEVKGARIYGPSEKRPIILQSEKAGNEVGFVLERDKFDKHLAALAAKAGADVWVKSPALGVIKEDGKVAGAKIRHENNVVEVRAKMVIAADGFESEFGRWAGLKSVILARNDIISALQYRMINIDVDPDYTDFYLGSIAPGGYIWVFPKGEGMANVGIGSSINFIHNRLELKNYLDRFIENHPGLKKGQDIQLVTGGVSVSKVKMPITMPGLMLVGDAARLIDPITGGGIANAIVSGMYAAQVSKEAIESNDYSPQMMGKYEKLVKDRFERKHLRNWVAKEKLAQLSDETLDKLVDIVSEQVLTTISVEAILKAIAEKYPEVVKELEDLILEHHHHHH	soluble
MSLNVFNTASDEDIKKGLASDVYFERTISAIGDKCNDLRVAMEATVSGPLDTWINFTGLDEVLKLLEGLDVDLYAIPEGTILFPRDANGLPVPFIRVEGRYCDFGMYETAILGFICQASGISTKASKVRLAAGDSPFFSFGIRRMHPAISPMIDRSAYIGGADGVSGILGAKLIDQDPVGTMPHALSIMLGDEEAWKLTLENTKNGQKSVLLIDTYMDEKFAAIKIAEMFDKVDYIRLDTPSSRRGNFEALIREVRWELALRGRSDIKIMVSGGLDENTVKKLREAGAEAFGVGTSISSAKPFDFAMDIVEVNGKPETKRGKMSGRKNVLRCTSCHRIEVVPANVQEKTCICGGSMQNLLVKYLSHGKRTSEYPRPKEIRSRSMKELEYFKDISEGHHHHHH	soluble
MGHHHHHHSHMSSSAGSGHQPSQSRAIPTRTVAISDAAQLPHDYCTTPGGTLFSTTPGGTRIIYDRKFLLDRRNSPMAQTPPCHLPNIPGVTSPGTLIEDSKVEVNNLNNLNNHDRKHAVGDDAQFEMDI	soluble
MTGNLVTKNSLTPDVRNGIDFKIADLSLADFGRKELRIAEHEMPGLMSLRREYAEVQPLKGARISGSLHMTVQTAVLIETLTALGAEVRWASCNIFSTQDHAAAAVVVGPHGTPDEPKGVPVFAWKGETLEEYWWAAEQMLTWPDPDKPANMILDDGGDATMLVLRGMQYEKAGVVPPAEEDDPAEWKVFLNLLRTRFETDKDKWTKIAESVKGVTEETTTGVLRLYQFAAAGDLAFPAINVNDSVTKSKFDNKYGTRHSLIDGINRGTDALIGGKKVLICGYGDVGKGCAEAMKGQGARVSVTEIDPINALQAMMEGFDVVTVEEAIGDADIVVTATGNKDIIMLEHIKAMKDHAILGNIGHFDNEIDMAGLERSGATRVNVKPQVDLWTFGDTGRSIIVLSEGRLLNLGNATGHPSFVMSNSFANQTIAQIELWTKNDEYDNEVYRLPKHLDEKVARIHVEALGGHLTKLTKEQAEYLGVDVEGPYKPDHYRY	soluble
MEKLRIKGMSYTMCSGKFSIDKEMAETQHGTTVVKVKYEGAGAPCKVPIEIRDVNKEKVVGRIISSTPLAENTNSVTNIELEPPFGDSYIVIGVGNSALTLHWFRKGSSIGK	soluble
MELRAATKLTEEKYELKEGQTLDVKCDYTLEKFASSQKAWQIIRDGEMPKTLACTERPSKNSHPVQVGRIILEDYHDHGLLRVRMVNLQVEDSGLYQCVIYQPPKEPHMLFDRIRLVVTLEHHHHHH	soluble
MGSDKIHHHHHHMAGKLFIVILTPVCNGNCLYCGGYDEGLMPPKIQYPLESLKKIADGNSVAFYGGEPLLEMEKMKEIMDSVKAEHFILQTNGLKLNRLEDEYIRRFSTILVSFDGRREVHDLYRGNYERVLENVLNVRRKGFEGELIARMVASQETDIYEDVMHILNLDCFTHVHWQIDAVWSSDGVWRDFERWVERYNAGVRKLVKFWASELRKGVLHGLVPFMGVATAIFKPFTHPPCSSGFESFAIATDGRILACPICPDLDWNEVGSLDEGIKRRLEILEPCLSCSYFRFCGGRCVFFNRERLWGDRGFRLVCSTVKNLVDSILACKHLILANKEKIMYPRFLNTTEIIP	not soluble
SLTDSAAPRLHVQALSADCAEAARRWAERLGLPLEADDEAEFAVQVGEQGLQVLQLGADSPGPVRVDFVEGASAHRRKFGGGSGQMIAKAVGVQPGIRPRVLDATAGLGQDGFVLASLGCEVTLVERQPLIAALLEDGLERARRDPDVAPIAARMRLLGGNSADLMRAWDGEAPQVIYLDPMFPHRDKSALVKKEMRLFRPLVGDDLDAPALLQAALALASHRVVVKRPRKAPIIEGPKPGYSLEGKSSRYDIYPKKALGK	soluble
MAGDPMKNKSLLLAVAISATLLAGCKNGVNGNLIASSGMSTYKAATLSDADVKALSNNACKQMDSENQLAGSKSKYTKRLSKIAKALGNNIDGTPVSYKVYMTSDINAWAMANGCVRVYSGLMDLMTDNEIEGVLGHELGHVSLGHSRKAMQTAYATLAARDAISATSGVAAQLSQSQLGDLAEGVINSAFSRSQESDADDFSYDLLKKRGINTQGLVTAFDKFATMDAGHAKSLMDSHPASADRAQHMRDRIAEDKKLEHHHHHH	soluble
MAHHHHHHMFAALSWLLDLDQGHAASSSSTSSCSSYSGSLDADAGVETDPAANHTTFSDAGGQLLAELHISSVAAATLSRSASEAAAPPRGAVYSSARHLEESFADLEARKAEFFAPSPCQEPAEDAGLGLSSLTERGGTPVSPLSCKIVPLGSLCAYANETVSLSPIASPVPAPVSATVATLLAPTHEDERLLLVSEGVMLSARLSSPSRGGPRAAAERAKITNNDGSATGAMGAGVAAPTQRSRILDWDREMHARPQASPPPGLSANRGERAVRSGTGVQERSEQIADAEPGEARLVRGAMKAAFMLSTPPHTPALGAAAFAPAAVPLHPSPPFLGTTVGARDAAVPGYSIERIHDTPAQEDSGVVYLADGLATVTSMDVGDLHRQAEQSSPPLTHPLAAQLTTPSHTKQPHFDFS	not soluble
MQILFNDQAMQCAAGQTVHELLEQLDQRQAGAALAINQQIVPREQWAQHIVQDGDQILLFQVIAGG	soluble
LSSPQNILVCVTQQITCERLILKAAELRNELKGELFVIHVAKNEWNFLDNIKEGEALEYLFKISKSVGANLSVLKSDDIVQTIVNFAKENKITHIVMGESPNDHKENNFYNELKRLLSNVEILVIPQAGI	not soluble
MRIRSLEIEHMRAITHLVLKDLPSNGVIVISGENERGKSTIMEAIKLVLGEKHDTNKQSVKAIQPKGHDVGTRICLEADLGPVRFRVSKVFNKKKSCELTIFEPKPANYTGKEANSQLSGLLDAHLDHDLFSALFVEQGDITSMLSAAGISSVTQALGGATDHASNEDNALILTVEKEKDRYFTKSGATKKGGELGIAETAVAEAEQAVLAATQQKETLDRRVESVAGFQRDRDQAQQDLPNARDTLTTREQELKTAELAAQQLENASAQLKIAQDQERILQSDIDAREELRKEQSRLSEALQIRIQEELDLKEKTDSLSEAREKLRSQHEKARADAEKMRQRLEKLKESLRLDTLRTSYQELLTVSKQLEELRTVPEVTGAQLSAAEEANDRAKAAAYVVEAHAATMLINAAQPVTIQIDGEAVALNDTEWTTRITSELTAVIGDVSLTIEPGEQGEQLEQKRAETQETLRAALGDAKDIATLRLQREAWVDAEKELQSLNKRKNEIAMRFGDKADLERDIADAELQVAELDIQESDDLQQLIDDAEKEYLQYQQDADAYQKELGAWDSNDIQVRYATVKARVEAERENLDRCDQKIKAQEEQRPLEVLHSELHNVTAELKRQQDHLAELRETDNLQVAKDLYAGAAARVESLENTIRDCEANLKALQTQIDYAAGAAEQLDVALAQRDVALRVLEAVHHRAQAAMLLYTTLIRHRDIARQKYAAPFTQRLTEFAAPVFGKGVGFELGSDLSVVKRTMKEQTVGVDELSGGAQEQLSIVQRFAVADLASQGGETVPVFIDDALGSTDSNRLEMMATLFSRQGHNQQVFVLTCMPQRYDYVAGKHELRISDLMQ	not soluble
MTMGKRTQAPALEVRLLREGIIESKHIVQAVVCDERGRVLSVAGNSETATFVRSALKPFQALAVTTTGTLERYDLSDRDLAIITSSHKGTIEQVRQAFNILWRADLDPSVLQCPIPQGKRSPLEYNCSGKHAGMLAICQQRHWPLNNYMDRKHPVQQLVLAKVAELLRMPAAEFISAHDDCGVPTYLLQLGQISSLYALLAASNNLDMERIVRAMTHHPSMVAGEREFDTELMRLTPGELVSKSGAEGVQCIGRLGEGMGLTIKVMDGAKRAKYAVAIHLLQQMGWITPSVAESLAEKFMNPGKYTRLEVVGELSLLLEHHHHHH	not soluble
METKDLIVIGGGINGAGIAADAAGRGLSVLLLEAQDLACATSSASSKLIHGGLRYLEHYEFRLVSEALSERETLLKMAPHIIFPMRFRLPHQPHLRPAWMIRIGLFMYDNIGKRVSLPASKGLKFGADSVLKPELKQGFEYSDCWVDDARLVVLNAQEVAKRGGEVRTRTKVTRARREQGVWIVDAVDSLTGETFTWRAKGLVNATGPWVKEFFDDGLQLKSPYGIRLIKGSHIVVPRVHNQPQAYILQNKDHRIVFVIPWQDDYSIIGTTDVEYKGNPHDVKIDDNEVGYLLDVYNDHFKQQLTRDDIVWTYSGVRPLCDDESDSPQAITRDYTLSVDDDNGQAPLLSVFGGKLTTYRKLAEHALDKLHKYYPQAGKAWTKDAVLPGGDIAGTRDDYAAALRRRFNLPESLTRRYSRTYGSNSELILANVKGLSDLGEDFGHDLYEAELRYLVEKEWAVTLDDVIWRRTKLGMRFDDAQKQRISDWLVSYRQQQMAKAGLEHHHHHH	soluble
